Target: Biotinylated human Norrin K58N (disease-associated mutation) (human, UniProt Q00604 25-133, K58N, biotin on the C-terminal BirA recognition sequence (in vivo biotinylation))
Test: SPR

Sequence of Biotinylated human Norrin K58N (disease-associated mutation) (Q00604 25-133 K58N): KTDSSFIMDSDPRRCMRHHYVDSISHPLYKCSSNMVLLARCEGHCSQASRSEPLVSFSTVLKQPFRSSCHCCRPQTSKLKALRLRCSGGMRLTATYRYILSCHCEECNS

Kd: 1.24 µM
B1: Frizzled4 cysteine-rich domain (Fz4CRD), human (domain or fragment)
chain: ERRCDPIRISMCQNLGYNVTKMPNLVGHELQTDAELQLTTFTPLIQYGCSSQLQFFLCSVYVPMCTEKINIPIGPCGGMCLSVKRRCEPVLKEFGFAWPESLNCSKFPPQNDHNHMCMEGPGDEEVPLPHKTPIQPGE
modifications: N-linked glycans at Asn59 and Asn144 (full, or cut to N-acetylglucosamine by Endo-F1)

— article PMC4497409 (2015)
